Assay results taken from patent publication US20060014212A1.
One block for each binder: values may come before it. Where no end group is shown, it is not given here.

Legend:
[1] = target: anti-A009 antibody (pERK2 PET); test: peptide competition assay in 6% BSA
[2] = target: anti-A005 antibody (ERK1 PET); test: peptide competition assay in 6% BSA
[3] = target: anti-A015 antibody (Thyroglobulin PET); test: peptide competition assay in 6% BSA
[4] = target: anti-A047 antibody (Fibronectin PET); test: peptide competition assay in 6% BSA
[5] = target: anti-A007 antibody (ERK2 PET); test: peptide competition assay in 6% BSA
[6] = target: anti-A049 antibody (FactorXII PET); test: peptide competition assay in 6% BSA
[7] = target: anti-A011 antibody (MEK1 PET); test: peptide competition assay in 6% BSA
[8] = target: anti-A037 antibody (C9 PET); test: peptide competition assay in 6% BSA
[9] = target: anti-A001 antibody (TGFbeta1 PET); test: peptide competition assay in 6% BSA
[10] = target: anti-A021 antibody (PSA PET); test: peptide competition assay in 6% BSA
[11] = target: anti-A017 antibody (Troponin I PET); test: peptide competition assay in 6% BSA
[12] = target: anti-A044 antibody (Fibronectin PET); test: peptide competition assay in 6% BSA
[13] = target: anti-A022 antibody (PSA PET); test: peptide competition assay in 6% BSA
[14] = target: anti-A010 antibody (MEK1 PET); test: peptide competition assay in 6% BSA
[15] = target: anti-A012 antibody (Thyroglobulin PET); test: peptide competition assay in 6% BSA
[16] = target: anti-A016 antibody (Thyroglobulin PET); test: peptide competition assay in 6% BSA
[17] = target: anti-A043 antibody (CRP PET); test: peptide competition assay in 6% BSA
[18] = target: anti-A027 antibody (IL-1beta PET); test: peptide competition assay in 6% BSA
[19] = target: anti-A006 antibody (pERK1 PET); test: peptide competition assay in 6% BSA
[20] = target: anti-A028 antibody (IL-1beta PET); test: peptide competition assay in 6% BSA
[21] = target: anti-A023 antibody (PSA PET); test: peptide competition assay in 6% BSA
[22] = target: anti-A025 antibody (IL-1beta PET); test: peptide competition assay in 6% BSA
[23] = target: anti-A031 antibody (C3 PET); test: peptide competition assay in 6% BSA
[24] = target: anti-A014 antibody (Thyroglobulin PET); test: peptide competition assay in 6% BSA
[25] = target: anti-A035 antibody (C4 PET); test: peptide competition assay in 6% BSA
[26] = target: anti-A046 antibody (Fibronectin PET); test: peptide competition assay in 6% BSA
[27] = target: anti-A003 antibody (TGFbeta1 PET); test: peptide competition assay in 6% BSA
[28] = target: anti-A020 antibody (Troponin I PET); test: peptide competition assay in 6% BSA
[29] = target: anti-A034 antibody (C4 PET); test: peptide competition assay in 6% BSA
[30] = target: anti-A045 antibody (Fibronectin PET); test: peptide competition assay in 6% BSA
[31] = target: anti-A039 antibody (C9 PET); test: peptide competition assay in 6% BSA
[32] = target: anti-A024 antibody (IL-1beta PET); test: peptide competition assay in 6% BSA
[33] = target: anti-A004 antibody (ERK1 PET); test: peptide competition assay in 6% BSA
[34] = target: anti-A026 antibody (IL-1beta PET); test: peptide competition assay in 6% BSA
[35] = target: anti-A013 antibody (Thyroglobulin PET); test: peptide competition assay in 6% BSA
[36] = target: antibody C1; test: peptide competition ELISA: soluble peptide against immobilized target peptide for antibody C1
[37] = target: anti-A002 antibody (TGFbeta1 PET); test: peptide competition assay in 6% BSA
[38] = target: anti-A008 antibody (ERK2 PET); test: peptide competition assay in 6% BSA

- IC50 [1]: 31 nM
Binder: Ac-VADPDHDHTGC [A009 peptide (ERK2), Ac-…]

- IC50 [2]: 6 nM
Binder: CVAEEPFTFDMELDD-NH2 [A005 peptide (ERK1), …-NH2]

- IC50 [3]: 4 nM
Binder: CDFSTPLAHFDLR-NH2 [A015 peptide (Thyroglobulin), …-NH2]

- IC50 [4]: 10 nM
Binder: Ac-VDVIPVNLPGEHGQRC [A047 peptide (Fibronectin), Ac-…]

- IC50 [5]: 4 nM
Binder: Ac-IEVEQALAHPYLEQC [A007 peptide (ERK2), Ac-…]

- IC50 [6]: 15 nM
Binder: CVAGWGHQFEGAEEY-NH2 [A049 peptide (FactorXII), …-NH2]

- IC50 [7]: 23 nM
Binder: CGTSSAETNLEALQK-NH2 [A011 peptide (MEK1), …-NH2]

- IC50 [8]: 0.5 nM
Binder: CTEHYEEQIEAFK-NH2 [A037 peptide (C9), …-NH2]

- IC50 [9]: 0.8 nM
Binder: Ac-ALYNQHNPGASAAPC [A001 peptide (TGFbeta1), Ac-…]

- IC50 [10]: 8 nM
Binder: Ac-LSEPAELTDAVKC [A021 peptide (PSA), Ac-…]

- IC50 [11]: 10 nM
Binder: Ac-AYATEPHAKC [A017 peptide (Troponin I), Ac-…]

- IC50 [12]: 8 nM
Binder: CHEGGQSYK-NH2 [A044 peptide (Fibronectin), …-NH2]

- IC50 [13]: 8 nM
Binder: CDLPTQEPALG-NH2 [A022 peptide (PSA), …-NH2]

- IC50 [14]: 36 nM
Binder: Ac-PTPIQLNPAPDGC [A010 peptide (MEK1), Ac-…]

- IC50 [15]: 10 nM
Binder: Ac-GGQSAESEEEELC [A012 peptide (Thyroglobulin), Ac-…]

- IC50 [16]: 4 nM
Binder: CDEAGQELEGMR-NH2 [A016 peptide (Thyroglobulin), …-NH2]

- IC50 [17]: 4 nM
Binder: CYEVQGEVFTK-NH2 [A043 peptide (CRP), …-NH2]

- IC50 [18]: 5 nM
Binder: CLEFESAQFPNWY-NH2 [A027 peptide (IL-1beta), …-NH2]

- IC50 [19]: 6 nM
Binder: Ac-IADPEHDHTGC [A006 peptide (ERK1), Ac-…]

- IC50 [20]: 0.5 nM
Binder: CENMPVFLGGTK-NH2 [A028 peptide (IL-1beta), …-NH2]

- IC50 [21]: 8 nM
Binder: CGSIEPEEFLTPK-NH2 [A023 peptide (PSA), …-NH2]

- IC50 [22]: 5 nM
Binder: Ac-SLVMSGPYELKC [A025 peptide (IL-1beta), Ac-…]

- IC50 [23]: 5 nM
Binder: CHYLDETEQWEK-NH2 [A031 peptide (C3), …-NH2]

- IC50 [24]: 5 nM
Binder: CEIYDTIFAGLD-NH2 [A014 peptide (Thyroglobulin), …-NH2]

- IC50 [25]: 4 nM
Binder: CEANEDYEDYEYDE-NH2 [A035 peptide (C4), …-NH2]

- IC50 [26]: 20 nM
Binder: CTTQNYDADQK-NH2 [A046 peptide (Fibronectin), …-NH2]

- IC50 [27]: 8 nM
Binder: CYIWSLDTQYSK-NH2 [A003 peptide (TGFbeta1), …-NH2]

- IC50 [28]: 4 nM
Binder: Ac-NIDALSGMEGRC [A020 peptide (Troponin I), Ac-…]

- IC50 [29]: 4 nM
Binder: CQTDQPIYNPGQR-NH2 [A034 peptide (C4), …-NH2]

- IC50 [30]: 1 nM
Binder: CTFYQIGDSWEK-NH2 [A045 peptide (Fibronectin), …-NH2]

- IC50 [31]: 0.4 nM
Binder: Ac-PWNVASLIYETKC [A039 peptide (C9), Ac-…]

- IC50 [32]: 0.5 nM
Binder: CNEDDLFFEADGPK-NH2 [A024 peptide (IL-1beta), …-NH2]

- IC50 [33]: 25 nM
Binder: Ac-ITVEEALAHPYLEQC [A004 peptide (ERK1), Ac-…]

- IC50 [34]: 8 nM
Binder: Ac-PTLQLESVDPKC [A026 peptide (IL-1beta), Ac-…]

- IC50 [35]: 8 nM
Binder: Ac-ELAETGLELLC [A013 peptide (Thyroglobulin), Ac-…]

- IC50 [36]: 1000 nM
Binder: YEVQGEVF [CRP-derived 8-mer PET YEVQGEVF]

- IC50 [37]: 3 nM
Binder: Ac-PQALEPLPIVYYVGRC [A002 peptide (TGFbeta1), Ac-…]

- IC50 [38]: 6 nM
Binder: CDPSDEPIAEAPFK-NH2 [A008 peptide (ERK2), …-NH2]
